Source: patent US10272135B2, “Apolipoprotein O and fragments thereof for inducing apoptosis in a cancerous cell” (INSERM (INSTITUT NATIONAL DE LA SANTÉ ET DE LA RECHERCHE …, priority 2014, dated 2019)

How the values were obtained:
H9c2 cardiac myoblasts = assay: Lipid profiling (FAME, diglycerides, triglycerides, BODIPY-palmitate) in cardiac myoblasts; format: cell-based
From the text: After ethical committee approval, all patients in this study gave written consent for sample collection and molecular analysis prior to inclusion. Patients were carefully selected by physicians from the Department of Cardiology, Toulouse University Hospital, prior to coronary by-pass surgery. Bioinformatics. Microarray expression data from human heart samples were downloaded from the GEO repository (GSE1145). This series consisted of 107 myocardial samples collected from patients undergoing cardiac transplantation whose failure arises from different etiologies (e.g. idiopathic dilated cardiomyopathy, ischemic cardiomyopathy, valvular cardiomyopathy, and hypertrophic cardiomyopathy) and from “normal” organ donors whose hearts cannot be used for transplants. Arrays were intensity normalized and hierarchical clustering (average group linkage, Pearson correlation, threshold r=0.8) was applied to identify groups of co-expressed genes. ApoO expression levels were plotted for the 107 human hearts tested and used to define relevant molecular pathways using both Toppgene and Ingenuity Pathway Analysis (Ingenuity systems, Redwood City, Calif., USA). ApoO subcellular localization was predicted using Mitopred, mitoprot and YLoc. Animals: All animal Studies followed the INSERM Institute Animal Facility guidelines and were approved by the animal care committees of the INSERM I2MC UMR 1048. All animal procedures were performed according to the guidelines of the French Ministry of Agriculture. Animals were housed at the Toulouse I2MC animal facility in a room lit 12 h per day (6 AM-6 PM) at an ambient temperature of 22+/−1° C. […] All ApoO sequences within the expression vectors were verified by DNA double strand sequencing using ABI PRISM®BigDye™ Terminator version 3.1 Ready reaction cycle sequencing kit (Life Technologies SAS, Villebon sur Yvette) and loaded on an ABI 3130XL DNA sequencing instrument (Life Technologies SAS, Villebon sur Yvette). […]

glioblastoma cells = assay: Basal oxygen consumption in glioblastoma cells; format: cell-based; conditions: cells which express ApoO vs cells treated with shApoO (FIG. 14)
From the text: Further, the inventors decided to investigate the effect of transforming gliobastoma cells so that they express ApoO. For this purpose, glioblastoma cells were transformed with an adeno-associated virus 9 comprising a polynucleotide encoding ApoO.
The inventors compared the oxygen consumption after treating glioblastoma cells with a short hairpin RNA (shApoO) silencing the expression of ApoO.

B1: ApoO: 198-amino acid apolipoprotein, SEQ ID NO: 1; tested by overexpression from expression vectors or transgene (protein, listed as Homo sapiens)
chain: MFKVIQRSVGPASLSLLTFKVYAAPKKDSPPKNSVKVDELSLYSVPEGQSKYVEEARSQLEESISQLRHYCEPYTTWCQETYSQTKPKMQSLVQWGLDSYDYLQNAPPGFFPRLGVIGFAGLIGLLLARGSKIKKLVYPPGFMGLAASLYYPQQAIVFAQVSGERLYDWGLRGYIVIEDLWKENFQKPGNVKNSPGTK
increase of total intracellular fatty acids (H9c2 cardiac myoblasts; ApoO expressing cells vs control (FIG. 6E)): 120% | accumulation of green fluorescent BODIPY-palmitate (H9c2 cardiac myoblasts; ApoO expressing cells, 2 min incubation (FIG. 6D)): rapid accumulation | oxygen consumption (glioblastoma cells): more important
